Entries after “also recorded” stand apart in the source; their conditions may differ.
Experiment: Safety and tolerability (TEAEs, DLTs, AESIs) in phase 1 dose-escalation study of teliso‐v
Assay type: in vivo, human
Conditions: for Dose‐limiting toxicity (DLT) events: 2.4 and 2.7 mg/kg IV Q3W, dose escalation
Experimental: This phase 1, open‐label, dose‐escalation clinical trial was conducted at two sites in Japan (NCT03311477). Enrollment began on November 6, 2017, and the trial was completed on March 4, 2019.
Escalation into the higher dose level proceeded if the first three evaluable patients in the lower dose level completed the first‐cycle (for at least 21 days) safety assessment without experiencing a dose‐limiting toxicity (DLT). DLT evaluations for dose escalation and determination of RP2D were carried out by investigators, study sponsor, and an independent safety monitor. […] No premedication was required. On the basis of confirmed availability of archival tumor tissue at enrollment, patients were retrospectively analyzed for c‐Met expression and MET amplification. c‐Met expression was determined by immunohistochemistry (IHC), and MET amplification was determined by fluorescence in situ hybridization or sequencing of plasma or tumor DNA.
Safety assessments included treatment‐emergent adverse events (TEAEs) graded according to the National Cancer Institute Common Terminology Criteria for Adverse Events version 4.03. TEAEs, vital signs, physical examinations, electrocardiograms, laboratory tests, and ECOG performance status were monitored during the study. Any grade ≥3 study drug‐related nonhematologic toxicity was documented as a DLT, except as follows: grade 3 nausea or vomiting lasting ≤48 hours that was successfully managed with antiemetics; grade 3 diarrhea successfully managed with antidiarrheal; grade 3 constipation lasting ≤7 days; grade 3 acute infusion reaction that resolved to grade ≤1 within 24 hours after the end of dosing; grade 3 and 4 laboratory tests including but not limited to lactate dehydrogenase, alkaline phosphatase, and gamma‐glutamyl transferase that were considered nonclinically significant by the investigator; liver function test abnormalities; grade 3 and 4 electrolyte imbalance unless associated with clinical symptomatology despite supplementation; and grade 3 hyperglycemia that was manageable without hospitalization. The following hematologic toxicities were documented as a DLT: any grade 4 hematologic toxicity (excluding febrile neutropenia or leukopenia lasting for ≤7 days, or lymphopenia); anemia requiring red blood cell transfusion; thrombocytopenia requiring platelet transfusion; grade 3 thrombocytopenia in the presence of grade ≥2 bleeding; and grade ≥3 febrile neutropenia. Toxicity management criteria are described in the Supplementary appendix.
All data were summarized and tabulated by dose cohort. Categoric data were summarized in terms of frequency counts and percentages. Continuous data were summarized using descriptive statistics, including number of observations, mean, standard deviation, median, minimum, and maximum. No formal statistical analysis was performed for efficacy variables, which were all exploratory in nature. ORR was defined as the proportion of patients with a confirmed partial response (PR) or complete response (CR). Duration of response was defined as time from a patient's initial objective response to the first date of disease progression (PD) or death. The overall disease control rate was defined as the proportion of patients with CR, PR, or stable disease (SD). […] PFS was estimated using the Kaplan–Meier method. Efficacy analyses are presented with two‐sided exact 95% binomial CI.

[1] = total, N = 9, listed as teliso-v
[2] = total, N = 9, listed as telisotuzumab vedotin
[3] = total, N = 9, listed as teliso‐v

**Q.** What does the source list for “Teliso‐v: antibody‐drug conjugate: anti–c‐Met humanized monoclonal antibody ABT‐700 coupled to monomethyl auristatin E through a valine‐citrulline linker, drug:antibody ratio approximately three”?
**A.** Dose‐limiting toxicity (DLT) events: no DLTs were reported; also recorded: no DLTs observed; Dose‐limiting toxicity (DLT) events (listed as telisotuzumab vedotin): no dose‐limiting toxicity events were observed; Hematologic AEs (AESI) (2.4‐mg/kg dose level): 33%; Peripheral neuropathy events (AESI) (2.4‐mg/kg dose level): three; Hematologic AEs (AESI) (2.7‐mg/kg dose level): 67%; Ocular AESIs (2.7‐mg/kg dose level): three; Peripheral neuropathy events (AESI) (2.7‐mg/kg dose level): three; Frequency of corneal epithelium disorder (Japanese patients, four of nine): 44.4%; AEs leading to withdrawal of consent (N = 9): three; Dry eye (ocular AESI) (N = 9): one; Keratitis (ocular AESI) (N = 9): one; Patients with at least one TEAE (N = 9): nine; Patients with at least one TEAE related to teliso‐v (N = 9): nine; Patients with serious AEs (N = 9): two; Punctate keratitis (ocular AESI) (N = 9): two; Serious AEs, number of events (N = 9): Three; Visual impairment (ocular AESI) (N = 9): one; Maximum tolerated dose (doses up to 2.7 mg/kg Q3W, 3 + 3 design): not reached; Deaths (either dose level): No deaths were reported; Recommended phase 2 dose (RP2D) (every 3 weeks, Japanese patients): 2.7 mg/kg; Ocular AESIs (grade 1 or 2, total, N = 9): 44%; TEAE leading to treatment discontinuation (grade 2, teliso‐v related serious AE, 2.7‐mg/kg dose level): gait disturbance; Peripheral neuropathy events (AESI) (grades 1 and 2, total, N = 9): 67%; Alanine aminotransferase increased, TEAE regardless of relationship (total, N = 9): 2 (22) n (%); Alanine aminotransferase increased, TEAE related to teliso‐v (total, N = 9): 2 (22) n (%); Alopecia, TEAE regardless of relationship (total, N = 9): 2 (22) n (%); Alopecia, TEAE related to teliso‐v (total, N = 9): 2 (22) n (%); Anemia, TEAE regardless of relationship (total, N = 9): 2 (22) n (%); Aspartate aminotransferase increased, TEAE regardless of relationship (total, N = 9): 2 (22) n (%); Aspartate aminotransferase increased, TEAE related to teliso‐v (total, N = 9): 2 (22) n (%); Back pain, TEAE regardless of relationship (total, N = 9): 2 (22) n (%); Constipation, TEAE regardless of relationship (total, N = 9): 2 (22) n (%); Decreased weight, TEAE regardless of relationship (total, N = 9): 33%; Decreased white blood cell count, TEAE regardless of relationship (total, N = 9): 33%; Decreased white blood cell count, TEAE related to teliso‐v (total, N = 9): 33%; Diarrhea, TEAE regardless of relationship (total, N = 9): 2 (22) n (%); Fatigue, TEAE regardless of relationship (total, N = 9): 2 (22) n (%); Fatigue, TEAE related to teliso‐v (total, N = 9): 2 (22) n (%); Hypoalbuminemia, TEAE regardless of relationship (total, N = 9): 2 (22) n (%); Malaise, TEAE regardless of relationship (total, N = 9): 2 (22) n (%); Malaise, TEAE related to teliso‐v (total, N = 9): 2 (22) n (%); Neutrophil count decreased, TEAE regardless of relationship (total, N = 9): 2 (22) n (%); Neutrophil count decreased, TEAE related to teliso‐v (total, N = 9): 2 (22) n (%); Peripheral neuropathy, TEAE regardless of relationship (total, N = 9): 2 (22) n (%); Peripheral neuropathy, TEAE related to teliso‐v (total, N = 9): 2 (22) n (%); Punctate keratitis, TEAE regardless of relationship (total, N = 9): 2 (22) n (%); Punctate keratitis, TEAE related to teliso‐v (total, N = 9): 2 (22) n (%); Weight decreased, TEAE regardless of relationship (total, N = 9): 3 (33) n (%); Weight decreased, TEAE related to teliso‐v (total, N = 9): 2 (22) n (%); White blood cell count decreased, TEAE regardless of relationship (total, N = 9): 3 (33) n (%); White blood cell count decreased, TEAE related to teliso‐v (total, N = 9): 3 (33) n (%); Decreased appetite, TEAE regardless of relationship [1]: 3 (33) n (%); Nausea, TEAE regardless of relationship [1]: 3 (33) n (%); Peripheral sensory neuropathy, TEAE regardless of relationship [1]: 4 (44) n (%); Decreased appetite, TEAE related to teliso‐v [2]: 33%; Nausea, TEAE related to teliso‐v [2]: 33%; Peripheral sensory neuropathy, TEAE related to teliso‐v [2]: 44%; Decreased appetite, TEAE regardless of relationship [3]: 33%; Decreased appetite, TEAE related to teliso‐v [3]: 3 (33) n (%); Nausea, TEAE regardless of relationship [3]: 33%; Nausea, TEAE related to teliso‐v [3]: 3 (33) n (%); Peripheral sensory neuropathy, TEAE regardless of relationship [3]: 44%; Peripheral sensory neuropathy, TEAE related to teliso‐v [3]: 4 (44) n (%)

From paper PMC7982615, “Phase 1 study of telisotuzumab vedotin in Japanese patients with advanced solid tumors” (Cancer Medicine, 2021)
